Laboratory results reported in patent US20200131473.

Tested on: ETAA1-ATR activating domain (ETAA1-AAD)
Sequence (chain, as listed by the source): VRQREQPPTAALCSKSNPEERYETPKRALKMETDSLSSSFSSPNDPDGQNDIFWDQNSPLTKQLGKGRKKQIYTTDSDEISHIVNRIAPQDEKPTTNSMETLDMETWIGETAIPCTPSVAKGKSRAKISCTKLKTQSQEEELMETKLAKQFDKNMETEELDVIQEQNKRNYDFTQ

Chain of ATR (ATM and Rad3-related kinase) (chain, as listed by the source): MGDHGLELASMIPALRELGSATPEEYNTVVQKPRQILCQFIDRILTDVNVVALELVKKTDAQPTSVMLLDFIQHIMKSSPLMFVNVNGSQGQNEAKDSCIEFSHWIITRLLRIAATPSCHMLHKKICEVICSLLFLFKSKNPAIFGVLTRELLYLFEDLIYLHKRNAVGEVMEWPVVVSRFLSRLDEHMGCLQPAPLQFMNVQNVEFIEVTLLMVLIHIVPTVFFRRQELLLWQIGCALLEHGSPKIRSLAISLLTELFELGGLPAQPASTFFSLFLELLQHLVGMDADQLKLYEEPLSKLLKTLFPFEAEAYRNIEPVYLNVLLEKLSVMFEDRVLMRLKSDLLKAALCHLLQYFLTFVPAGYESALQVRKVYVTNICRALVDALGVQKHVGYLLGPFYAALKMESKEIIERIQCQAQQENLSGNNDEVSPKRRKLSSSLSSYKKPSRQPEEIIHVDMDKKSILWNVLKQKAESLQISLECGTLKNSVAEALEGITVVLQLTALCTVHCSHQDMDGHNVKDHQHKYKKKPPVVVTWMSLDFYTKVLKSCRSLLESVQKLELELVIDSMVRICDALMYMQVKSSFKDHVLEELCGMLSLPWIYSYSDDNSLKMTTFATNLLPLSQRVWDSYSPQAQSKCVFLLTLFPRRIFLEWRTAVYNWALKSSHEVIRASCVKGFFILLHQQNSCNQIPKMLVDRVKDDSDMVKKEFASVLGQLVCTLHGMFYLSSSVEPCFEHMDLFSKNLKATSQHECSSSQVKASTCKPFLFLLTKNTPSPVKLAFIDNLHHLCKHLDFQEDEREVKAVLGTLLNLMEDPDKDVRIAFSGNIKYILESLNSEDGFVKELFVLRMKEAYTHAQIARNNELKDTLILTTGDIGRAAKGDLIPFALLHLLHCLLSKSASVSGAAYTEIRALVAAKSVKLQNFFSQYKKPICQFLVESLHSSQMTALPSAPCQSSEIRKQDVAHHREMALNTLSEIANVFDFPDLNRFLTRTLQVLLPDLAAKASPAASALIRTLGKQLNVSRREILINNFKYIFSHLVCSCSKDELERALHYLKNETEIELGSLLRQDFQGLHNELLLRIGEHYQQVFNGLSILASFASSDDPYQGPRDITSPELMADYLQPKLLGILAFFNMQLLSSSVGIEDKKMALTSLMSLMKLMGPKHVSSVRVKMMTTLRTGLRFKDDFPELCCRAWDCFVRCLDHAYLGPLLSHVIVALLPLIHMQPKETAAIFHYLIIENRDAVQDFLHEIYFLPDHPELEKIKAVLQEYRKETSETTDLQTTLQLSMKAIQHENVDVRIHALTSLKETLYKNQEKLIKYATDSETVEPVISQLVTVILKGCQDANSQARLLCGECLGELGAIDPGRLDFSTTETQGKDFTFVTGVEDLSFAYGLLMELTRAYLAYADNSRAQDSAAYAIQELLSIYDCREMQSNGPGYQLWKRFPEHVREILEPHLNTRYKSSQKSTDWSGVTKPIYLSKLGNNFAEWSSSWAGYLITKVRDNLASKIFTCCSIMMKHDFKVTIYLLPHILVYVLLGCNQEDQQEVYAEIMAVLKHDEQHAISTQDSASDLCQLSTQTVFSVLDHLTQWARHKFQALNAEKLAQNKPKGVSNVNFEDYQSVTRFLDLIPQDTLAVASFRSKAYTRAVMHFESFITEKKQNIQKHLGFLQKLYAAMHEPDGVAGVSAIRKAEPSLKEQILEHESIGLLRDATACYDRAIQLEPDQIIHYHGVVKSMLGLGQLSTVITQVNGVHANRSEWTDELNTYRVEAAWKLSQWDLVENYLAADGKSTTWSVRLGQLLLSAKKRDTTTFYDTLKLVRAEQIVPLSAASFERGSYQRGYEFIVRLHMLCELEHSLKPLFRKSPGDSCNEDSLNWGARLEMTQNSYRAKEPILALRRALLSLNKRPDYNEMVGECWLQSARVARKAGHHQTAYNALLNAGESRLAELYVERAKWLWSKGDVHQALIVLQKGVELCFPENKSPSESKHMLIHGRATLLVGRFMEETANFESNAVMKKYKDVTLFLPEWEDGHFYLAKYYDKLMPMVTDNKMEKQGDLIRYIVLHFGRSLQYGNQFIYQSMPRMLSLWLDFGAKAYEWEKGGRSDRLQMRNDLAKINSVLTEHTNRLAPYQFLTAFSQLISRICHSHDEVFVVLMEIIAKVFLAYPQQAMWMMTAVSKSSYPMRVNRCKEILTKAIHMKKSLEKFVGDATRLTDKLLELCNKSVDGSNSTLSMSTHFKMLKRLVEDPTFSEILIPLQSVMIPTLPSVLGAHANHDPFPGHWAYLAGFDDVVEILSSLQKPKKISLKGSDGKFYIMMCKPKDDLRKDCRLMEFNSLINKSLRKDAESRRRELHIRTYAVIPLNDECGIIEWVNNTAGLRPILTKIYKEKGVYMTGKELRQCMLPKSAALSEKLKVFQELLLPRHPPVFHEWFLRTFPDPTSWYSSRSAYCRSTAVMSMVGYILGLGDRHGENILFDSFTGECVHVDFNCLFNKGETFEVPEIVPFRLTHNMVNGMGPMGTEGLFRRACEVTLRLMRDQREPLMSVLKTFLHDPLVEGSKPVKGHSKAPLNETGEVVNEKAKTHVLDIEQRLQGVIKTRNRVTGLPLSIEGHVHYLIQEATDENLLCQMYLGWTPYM

ATR (ATM and Rad3-related kinase)
phosphorylation of H2AX, CHK1 and CHK2 (immunoblot and FACS in Dox-iETAA1 ESCs): ATR activation through ETAA1 expression leads to the phosphorylation of H2AX and CHK1 but not CHK2 in ESCs
